From patent US20150299268A1 (UNIVERSITY OF MARYLAND BALTIMORE, published 2015)

Assays:
[1] = biological target: gp120-VRC01-ScFV; assay: ELISA
[2] = biological target: T1, FLSC R/T (HIV-1, UniProt P01730 26-208); assay: ELISA
T1 construct: not shown: linker of FLSC not described

[3] = biological target: T2, BaL-gp120 (HIV-1 BaL); assay: ELISA
T2 construct: domain: gp120; also called monomeric gp120; monomeric BaL gp120

[4] = biological target: gp120-JR4-ScFV; assay: ELISA
[5] = biological target: gp120-b12-ScFV; assay: ELISA
[6] = biological target: gp120-JR48.1-ScFV; assay: ELISA
[7] = biological target: Env of HIV-1 virus AC10.0.29 (HIV-1); assay: cell-based or functional assay
[8] = biological target: Env of HIV-1 virus BaL.26 (HIV-1); assay: cell-based or functional assay
[9] = biological target: Env of HIV-1 virus CAAN5342.A2 (HIV-1); assay: cell-based or functional assay
[10] = biological target: Env of HIV-1 virus ZM53M.PB12 (HIV-1); assay: cell-based or functional assay
[11] = biological target: Env of HIV-1 virus T250-4 (HIV-1); assay: cell-based or functional assay
[12] = biological target: Env of HIV-1 virus 6540.v4.c1 (HIV-1); assay: cell-based or functional assay
[13] = biological target: Env of HIV-1 virus 3817.v2.c59 (HIV-1); assay: cell-based or functional assay
[14] = biological target: Env of HIV-1 virus Du172.17 (HIV-1); assay: cell-based or functional assay
[15] = biological target: Env of HIV-1 virus 6535.3 (HIV-1); assay: cell-based or functional assay
[16] = biological target: Env of HIV-1 virus 6545.v4.c1 (HIV-1); assay: cell-based or functional assay
[17] = biological target: Env of HIV-1 virus 1006_11_C3_1601 (HIV-1); assay: cell-based or functional assay
[18] = biological target: Env of HIV-1 virus SF162.LS (HIV-1); assay: cell-based or functional assay
[19] = biological target: Env of HIV-1 virus Du422.1 (HIV-1); assay: cell-based or functional assay
[20] = biological target: Env of HIV-1 virus THRO4156.18 (HIV-1); assay: cell-based or functional assay
[21] = biological target: T3, BaL-gp120-D57A (HIV-1 BaL); assay: capture ELISA
T3 construct: domain: gp120

[22] = biological target: T4, BaL-gp120-T303A (HIV-1 BaL); assay: capture ELISA
T4 construct: domain: gp120; glycan mutant, V3 region

B1: N60-B1.1 (antibody, V domains shown)
VH: QLQLQESGPGLVKPSGTLSLTCSVSGGSMNGRNIYWAWIRQTPGKGLEWIGSVDVSDEDAGRTFYKWPIKSRASISADTSKNQFSLKLSSVTVADTGVYYCARETLYYVGNGYYYPLDVFYYNYYMDVWGKGTTVSVSS
VL: not shown
notes: also called bnAb N60-B1.1
In the case of B1, the “Fold of Ab needed for ELISA binding OD equal to half max on gp120” value (from here on “Fold of Ab needed”) [1] is reported as 0.03 fold, the “Fold of Ab needed” value [2] is reported as 16.4 fold and the “Fold of Ab needed” value [3] is reported as 1 fold. The “Fold of Ab needed” value [4] was 0.04 fold, the “Fold of Ab needed” value [5] was 0.01 fold and the “Fold of Ab needed” value [6] was 0.14 fold. The “IC50 Titer (ug/ml), neutralization” value [7] was 0.14 µg/mL, the “IC50 Titer (ug/ml), neutralization” value [8] was 0.019 µg/mL and the “IC50 Titer (ug/ml), neutralization” value [9] was 0.019 µg/mL. For the same binder, the “IC50 Titer (ug/ml), neutralization” value [10] was 0.019 µg/mL, the “IC50 Titer (ug/ml), neutralization” value [11] was 0.019 µg/mL and the “IC50 Titer (ug/ml), neutralization” value [12] was 0.08 µg/mL. The “IC50 Titer (ug/ml), neutralization” value [13] was 1.53 µg/mL, the “IC50 Titer (ug/ml), neutralization” value [14] was 7.08 µg/mL and the “IC50 Titer (ug/ml), neutralization” value [15] was 0.019 µg/mL. The “IC50 Titer (ug/ml), neutralization” value [16] was 0.37 µg/mL, the “IC50 Titer (ug/ml), neutralization” value [17] was 0.07 µg/mL and the “IC50 Titer (ug/ml), neutralization” value [18] was 0.019 µg/mL. For the same binder, the “IC50 Titer (ug/ml), neutralization” value [19] was 0.18 µg/mL, the “IC50 Titer (ug/ml), neutralization” value [20] was 0.3 µg/mL and the “% Binding” value [21] was 98%. The “% Binding” value [22] was 2%.
